For test [1], the target named is STAT1cc (STAT1 core fragment, A656C and N658C, locked dimer), tag-free (UniProt P42224). Kind of test: nickel affinity copurification, SDS-PAGE, Coomassie blue band quantification. To be noted: parent: est. 1.0; read off a plot.
Test [2] deals with phosphorylated STAT1 dimer (pSTAT1d), STAT1 core domain S132-H713 (human) (UniProt P42224). Kind of test: BLI; His-tagged pSTAT1d or STAT1 monomer loaded on Ni-NTA biosensors, TgIST-R2 proteins in solution; kinetic buffer (ForteBio), 25 °C; 1:1 model for the constant.
In test [3] the target is GST-tagged TgIST-R2 (Toxoplasma gondii (type I strain GT1)). Description: BLI; GST-tagged TgIST-R2 loaded on anti-GST biosensors, pSTAT1d or pSTAT1d-linker-R2 in solution; kinetic buffer (ForteBio), 25 °C; apparent avidity, 1:2 model.
For test [4], the target named is T1, 6XHis-tagged TgIST-R2 (G365-S420).
T1 chain: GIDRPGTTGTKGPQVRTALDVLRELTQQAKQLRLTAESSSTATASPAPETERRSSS
Description: nickel affinity copurification, SDS-PAGE, Coomassie blue band quantification. Conditions: chain shown with the change;; parent: est. 1.0; read off a plot.

This is an account of results in PMC9279507.

For the molecule 6XHis-tagged TgIST-R2 (G365-S420) L386A, the ratio to parent in test [1] worked out at 0.02. 6XHis-tagged TgIST-R2 (G365-S420) R387A: the ratio to parent in test [1] worked out at 0.03.

Turning to 6XHis-tagged TgIST-R2 (G365-S420) D384A, in test [1], the ratio to parent is 0.57. The same measure, in the same setting: under 6XHis-tagged TgIST-R2 (G365-S420) Q378A stands 0.83. Still for that read-out and setting: then 6XHis-tagged TgIST-R2 (G365-S420) L383A, with 0.01. In test [2], “TgIST-R2 peptide after GST removal (domain or fragment)” registered a Kd of 330 nM. Take “phosphorylated STAT1 dimer (pSTAT1d), STAT1 core domain S132-H713 (from UniProt P42224 132-713) (domain or fragment)”: in test [3], the Kd came out at 22 nM. Regarding 6XHis-tagged TgIST-R2 (G365-S420) Q391A, the ratio to parent in test [1] is 1.1. On the same count and under the same terms, under “6XHis-tagged TgIST-R2 (G365-S420) R416A; R417A” stands 0.98. In the case of 6XHis-tagged TgIST-R2 (G365-S420) Q392A, the ratio to parent in test [1] was 0.91. As for 6XHis-tagged TgIST-R2 (G365-S420) T381A, in test [1], the ratio to parent worked out at 0.38. Turning to “6XHis-tagged TgIST-R2 (G365-S420) Q391A; Q392A”, the ratio to parent in test [1] is 0.99. The same measure, in the same setting: then 6XHis-tagged TgIST-R2 (G365-S420) E388A, with 1.1.

B1: STAT1cc (STAT1 core fragment, A656C and N658C, locked dimer), tag-free, P42224 K665A (protein)
chain: MSQWYELQQLDSKFLEQVHQLYDDSFPMEIRQYLAQWLEKQDWEHAANDVSFATIRFHDLLSQLDDQYSRFSLENNFLLQHNIRKSKRNLQDNFQEDPIQMSMIIYSCLKEERKILENAQRFNQAQSGNIQSTVMLDKQKELDSKVRNVKDKVMCIEHEIKSLEDLQDEYDFKCKTLQNREHETNGVAKSDQKQEQLLLKKMYLMLDNKRKEVVHKIIELLNVTELTQNALINDELVEWKRRQQSACIGGPPNACLDQLQNWFTIVAESLQQVRQQLKKLEELEQKYTYEHDPITKNKQVLWDRTFSLFQQLIQSSFVVERQPCMPTHPQRPLVLKTGVQFTVKLRLLVKLQELNYNLKVKVLFDKDVNERNTVKGFRKFNILGTHTKVMNMEESTNGSLAAEFRHLQLKEQKNAGTRTNEGPLIVTEELHSLSFETQLCQPGLVIDLETTSLPVVVISNVSQLPSGWASILWYNMLVAEPRNLSFFLTPPCARWAQLSEVLSWQFSSVTKRGLNVDQLNMLGEKLLGPNASPDGLIPWTRFCKENINDKNFPFWLWIESILELIKKHLLPLWNDGCIMGFISKERERALLKDQQPGTFLLRFSESSREGAITFTWVERSQNGGEPDFHAVEPYTKKELSAVTFPDIIRNYKVMAAENIPENPLAYLYPNIDKDHAFGKYYSRPKEAPEPMELDGPKGTGYIKTELISVSEVHPSRLQTTDNLLPMSPEEFDEVSRIVGSVEFDSMMNTV
B1: in test [4], the ratio to parent amounted to 0.7.
